From patent CN112741804A (SHANGHAI JUNSHI BIOSCIENCES CO LTD; JUNMENG BIOSCIENCES CO …, dated 2021)

Biological target: T1, human PD-L1 (programmed death-ligand 1), soluble protein (human, UniProt Q9NZQ7 19-238, limits assumed)
T1 construct: also called 人PD-L1; CD274
Assay: ELISA, PD-L1 coated on plate, HRP anti-human IgG detection

T1 sequence (Q9NZQ7 19-238 limits assumed): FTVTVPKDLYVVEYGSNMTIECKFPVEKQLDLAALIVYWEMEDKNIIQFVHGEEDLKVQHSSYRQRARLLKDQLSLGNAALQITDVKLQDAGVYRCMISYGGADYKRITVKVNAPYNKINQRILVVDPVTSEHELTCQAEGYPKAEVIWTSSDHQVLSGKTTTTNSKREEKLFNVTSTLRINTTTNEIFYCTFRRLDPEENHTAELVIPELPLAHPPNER

Binder	EC50
JS003 (humanized anti-PD-L1 antibody, clone 30) (antibody, human IgG4 S228P, kappa, V domains shown, Full humanized antibody; Tested from formulation no; 30; also called 人源化抗体30; 抗体30) VH: QGQLQESGPSLVKPSQTLSLTCTVSGDSITRGYWNWIRKHPGKGLEYIGYISYTGSTYSNLSLKSRVTISRDTSKNQYYLKLSSVTAADTAVYYCATSTGWLDPVDYWGQGTLVTVSS VL: DIVMTQSPDSLAVSLGERATINCKASQNVDTSVAWFQQKPGQPPKALIYSASFRYSGVPDRFSGSGSGTDFTLTISSLQAEDVAVYFCQQYYGYPFTFGQGTKLEIKR	0.558 ng/mL
humanized anti-PD-L1 antibody 38 (clone 38) (antibody, V domains shown) VH: QGQLQESGPSLVKPSQTLSLTCTVSGDSITRGYWNWIRKPPGKGLEYIGYISYTGSTYSNLSLKSRVTISRDTSKNQYYLKLSSVTAADTAVYYCATSTGWLDPVDYWGQGTLVTVSS VL: DIQMTQSPSSLSASVGDRVTITCRASQNVDTSVAWFQQKPGKAPKALIYSASFRYSGVPSRFSGSGSGTDFTLTISSLQPEDFATYFCQQYYGYPFTFGQGTKLEIK	0.837 ng/mL
